Assay [1] has as its target Cedar virus attachment glycoprotein (CedV-G), HA-tagged, expressed on the cell surface (Cedar virus). As to the kind of experiment: flow cytometry on cells. In general terms: In flow cytometry, cells or beads pass a laser one at a time.
Assay [2] deals with T1, CedV-G receptor-binding six-bladed β-propeller domain (residues 209–622) (Cedar virus, UniProt J7H333 209-622, high-mannose N-linked glycans (expression in the presence of kifunensine)).
T1 sequence: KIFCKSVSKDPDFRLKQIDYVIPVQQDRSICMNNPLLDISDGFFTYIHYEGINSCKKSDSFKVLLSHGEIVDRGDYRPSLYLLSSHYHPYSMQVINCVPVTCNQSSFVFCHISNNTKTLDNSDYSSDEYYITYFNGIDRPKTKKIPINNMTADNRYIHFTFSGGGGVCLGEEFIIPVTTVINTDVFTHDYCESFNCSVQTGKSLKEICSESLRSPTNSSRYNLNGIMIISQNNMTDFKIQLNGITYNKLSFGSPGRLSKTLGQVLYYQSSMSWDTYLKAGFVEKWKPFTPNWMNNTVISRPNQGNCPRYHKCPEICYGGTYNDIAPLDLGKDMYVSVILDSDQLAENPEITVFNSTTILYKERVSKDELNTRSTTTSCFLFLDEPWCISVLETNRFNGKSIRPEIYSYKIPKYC
As to the kind of experiment: crystal structure. As to conditions: both partners purified.

Assay [3] concerns the target T2, Ghana virus attachment glycoprotein (GhV-G), HA-tagged, expressed on the cell surface (Ghana virus, UniProt I0E093 1-632).
T2 construct: also called Ghanaian bat henipavirus G; HNV-G; not shown: HA, C-terminal, kept
T2 sequence: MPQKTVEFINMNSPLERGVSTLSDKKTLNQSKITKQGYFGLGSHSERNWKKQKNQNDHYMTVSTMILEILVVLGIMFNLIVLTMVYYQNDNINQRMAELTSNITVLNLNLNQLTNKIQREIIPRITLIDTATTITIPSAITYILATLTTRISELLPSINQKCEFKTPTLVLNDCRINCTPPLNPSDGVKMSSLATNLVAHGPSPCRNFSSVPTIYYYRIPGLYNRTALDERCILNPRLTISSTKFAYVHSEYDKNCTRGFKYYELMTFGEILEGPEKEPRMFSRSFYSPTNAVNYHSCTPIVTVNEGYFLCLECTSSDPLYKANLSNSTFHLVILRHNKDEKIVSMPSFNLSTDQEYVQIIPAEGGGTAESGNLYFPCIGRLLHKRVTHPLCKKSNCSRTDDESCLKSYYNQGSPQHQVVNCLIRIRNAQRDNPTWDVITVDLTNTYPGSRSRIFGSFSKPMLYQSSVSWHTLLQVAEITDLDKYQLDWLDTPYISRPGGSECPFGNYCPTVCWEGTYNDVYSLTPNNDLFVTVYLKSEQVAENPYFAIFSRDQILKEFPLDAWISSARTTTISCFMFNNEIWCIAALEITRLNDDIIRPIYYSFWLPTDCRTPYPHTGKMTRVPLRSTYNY
As to the kind of experiment: flow cytometry on cells. As to conditions: one partner purified.

The target of assay [4] is T3, Nipah virus attachment glycoprotein (NiV-G), HA-tagged, expressed on the cell surface (Nipah virus, UniProt Q9IH62 1-602).
T3 construct: also called HNV-G; G of NiVpp
T3 sequence: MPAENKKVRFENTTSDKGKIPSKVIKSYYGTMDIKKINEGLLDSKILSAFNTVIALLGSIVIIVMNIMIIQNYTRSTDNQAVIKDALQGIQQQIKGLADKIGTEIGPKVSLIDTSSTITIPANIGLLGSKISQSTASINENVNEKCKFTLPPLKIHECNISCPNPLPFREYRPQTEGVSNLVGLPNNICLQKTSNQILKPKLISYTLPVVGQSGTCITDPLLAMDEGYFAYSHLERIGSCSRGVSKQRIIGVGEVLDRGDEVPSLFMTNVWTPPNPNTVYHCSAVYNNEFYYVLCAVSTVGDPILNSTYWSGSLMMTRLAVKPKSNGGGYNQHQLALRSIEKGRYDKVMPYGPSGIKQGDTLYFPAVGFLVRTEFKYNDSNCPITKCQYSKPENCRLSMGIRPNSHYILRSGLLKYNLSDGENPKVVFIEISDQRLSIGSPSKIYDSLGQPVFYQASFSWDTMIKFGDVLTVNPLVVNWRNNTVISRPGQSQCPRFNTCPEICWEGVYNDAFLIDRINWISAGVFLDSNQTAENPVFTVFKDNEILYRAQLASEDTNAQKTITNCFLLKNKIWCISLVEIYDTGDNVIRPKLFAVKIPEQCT
As to the kind of experiment: flow cytometry on cells. As to conditions: one partner purified.

For assay [5], the target named is T4, Hendra virus attachment glycoprotein (HeV-G), HA-tagged, expressed on the cell surface (Hendra virus, UniProt O89343 1-604).
T4 construct: also called HNV-G; G of HeVpp; not shown: HA, C-terminal, kept
T4 sequence: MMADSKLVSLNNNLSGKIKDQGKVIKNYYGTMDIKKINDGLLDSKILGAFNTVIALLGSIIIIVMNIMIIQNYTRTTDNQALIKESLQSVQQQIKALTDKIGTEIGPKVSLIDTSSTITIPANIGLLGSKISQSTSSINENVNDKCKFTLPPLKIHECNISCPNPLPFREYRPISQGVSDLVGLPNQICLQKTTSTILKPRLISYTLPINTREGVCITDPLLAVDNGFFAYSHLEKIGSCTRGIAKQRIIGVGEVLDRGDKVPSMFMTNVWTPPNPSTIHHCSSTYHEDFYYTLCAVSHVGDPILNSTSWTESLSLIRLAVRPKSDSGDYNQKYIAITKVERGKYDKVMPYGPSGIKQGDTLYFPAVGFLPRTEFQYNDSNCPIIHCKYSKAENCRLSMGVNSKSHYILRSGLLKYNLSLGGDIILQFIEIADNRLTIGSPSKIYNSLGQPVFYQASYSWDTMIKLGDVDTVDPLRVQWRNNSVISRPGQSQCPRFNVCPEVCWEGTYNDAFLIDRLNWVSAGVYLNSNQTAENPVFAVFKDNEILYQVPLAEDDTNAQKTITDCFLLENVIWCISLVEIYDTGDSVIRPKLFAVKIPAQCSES
The assay can be described thus: flow cytometry on cells. As to conditions: one partner purified.

Data on five molecules can be found in paper PMC6925387 (Life Science Alliance, 2019).

Broadly, the Kd is a measure of binding affinity in units of concentration. The term stoichiometry N denotes a count of units in the complex or per binding partner.

Consider “Soluble human ephrin-B2–Fc (from UniProt P52799) (Fc fusion)”, for which the Kd in assay [1] came out at 2.3 nM.
“Soluble human ephrin-B1–Fc (from UniProt P98172) (Fc fusion)” returned a Kd in assay [1] of 4 nM.

B1: Human ephrin-B1 N-terminal extracellular domain (residues 29–167) (domain or fragment)
chain: AKNLEPVSWSSLNPKFLSGKGLVIYPKIGDKLDIICPRAEAGRPYEYYKLYLVRPEQAAACSTVLDPNVLVTCNRPEQEIRFTIKFQEFSPNYMGLEFKKHHDYYITSTSNGSLEGLENREGGVCRTRTMKIIMKVGQD
modifications: high-mannose N-linked glycans (expression in the presence of kifunensine)
notes: also called extracellular β-barrel domain of human ephrin-B1; ephrin-B1 ectodomain
On to B1, for which, in assay [2], the “stoichiometry N” value turned out to be 1.

B2: Soluble human ephrin-B2–Fc (Fc fusion)
chain: IVLEPIYWNSSNSKFLPGQGLVLYPQIGDKLDIICPKVDSKTVGQYEYYKVYMVDKDQADRCTIKKENTPLLNCAKPDQDIKFTIKFQEFSPNLWGLEFQKNKDYYIISTSNGSLEGLDNQEGGVCQTRAMKILMKVGQDASSAGSTRNKDPTRRPELEAGTNGRSSTTSPFVKPNPGSSTDGNSAGHSGNNILGSEVALFA
notes: also called sEphrin-B2–Fc; ephrin-B–Fc; source: bought: R&D Systems
As for B2, the values for the Kd in assay [3], in assay [4] and in assay [5] were 0.82 nM, 1.4 nM and 0.86 nM, respectively.

B3: Soluble human ephrin-B3–Fc (Fc fusion)
chain: LSLEPVYWNSANKRFQAEGGYVLYPQIGDRLDLLCPRARPPGPHSSPNYEFYKLYLVGGAQGRRCEAPPAPNLLLTCDRPDLDLRFTIKFQEYSPNLWGHEFRSHHDYYIIATSDGTREGLESLQGGVCLTRGMKVLLRVGQSPRGGAVPRKPVSEMPMERDRGAAHSLEPGKENLPGDPTSNATSRGAEGPLPPPSMP
notes: also called sEphrin-B3–Fc; ephrin-B–Fc; source: bought: R&D Systems
Turning to B3, the Kd in assay [4] came to 2 nM; in assay [5] it was 5.3 nM.
